PMC11063069

Biological target: His-tagged human CD47 protein (human) (UniProt Q08722)
Assay: pull-down

UniProt Q08722, sequence (Q08722 19-139): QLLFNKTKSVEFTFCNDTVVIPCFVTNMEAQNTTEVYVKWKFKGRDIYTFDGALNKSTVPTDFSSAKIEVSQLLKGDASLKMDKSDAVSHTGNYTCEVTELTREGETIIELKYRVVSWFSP

fibronectin-binding protein B (FnBP B) of S. aureus laboratory strain 8325-4 (from UniProt A0A0H2XKG3 37-940) (natural protein)
percent of bacterial colonies precipitated in the pellets with recombinant hCD47: 83.2%
